This test addresses T1, Sp1 (Homo sapiens, UniProt P08047).
T1 construct: made in house
In words: GST pull-down, TReP-132 and Sp1. Type of test: binding. As to conditions: GST pull-down with 35S-Sp1, vs GST alone. How it is done: FIG. 13D: GST-TReP-132 proteins were incubated with ^35-[S]-Sp1 and immobilized on a glutathione-Sepharose column. Specific interactions were analyzed by comparison with the results obtained by incubating GST alone with ^35-[S]-Sp1. Sp1 input: 1/10th of radiolabelled Sp1 level used in the incubations.
In order to evaluate the interaction of TReP-132, Sp1, ER and PR, the wt and mutant GST-TReP-132 fusion proteins were expressed, then immobilized on glutathione-Sepharose as described (Frangioni and Neel, 1993; Monte et al., 1998). The ^35S-[Sp1], ^35S-[ER] and ^35S-[PR-B] proteins were synthesized in vitro using a rabbit reticulocyte lysate and T7 RNA polymerase system as directed by the manufacturer (Promega Corporation, Madison, Wis.). Proteins which bound, then detached from the Sepharose after being heated to boiling in SDS buffer were then separated on a 10% SDS-PAGE gel. The gels were stained with Coomassie blue, dried and autoradiographed.

T1 sequence (P08047 whole entry): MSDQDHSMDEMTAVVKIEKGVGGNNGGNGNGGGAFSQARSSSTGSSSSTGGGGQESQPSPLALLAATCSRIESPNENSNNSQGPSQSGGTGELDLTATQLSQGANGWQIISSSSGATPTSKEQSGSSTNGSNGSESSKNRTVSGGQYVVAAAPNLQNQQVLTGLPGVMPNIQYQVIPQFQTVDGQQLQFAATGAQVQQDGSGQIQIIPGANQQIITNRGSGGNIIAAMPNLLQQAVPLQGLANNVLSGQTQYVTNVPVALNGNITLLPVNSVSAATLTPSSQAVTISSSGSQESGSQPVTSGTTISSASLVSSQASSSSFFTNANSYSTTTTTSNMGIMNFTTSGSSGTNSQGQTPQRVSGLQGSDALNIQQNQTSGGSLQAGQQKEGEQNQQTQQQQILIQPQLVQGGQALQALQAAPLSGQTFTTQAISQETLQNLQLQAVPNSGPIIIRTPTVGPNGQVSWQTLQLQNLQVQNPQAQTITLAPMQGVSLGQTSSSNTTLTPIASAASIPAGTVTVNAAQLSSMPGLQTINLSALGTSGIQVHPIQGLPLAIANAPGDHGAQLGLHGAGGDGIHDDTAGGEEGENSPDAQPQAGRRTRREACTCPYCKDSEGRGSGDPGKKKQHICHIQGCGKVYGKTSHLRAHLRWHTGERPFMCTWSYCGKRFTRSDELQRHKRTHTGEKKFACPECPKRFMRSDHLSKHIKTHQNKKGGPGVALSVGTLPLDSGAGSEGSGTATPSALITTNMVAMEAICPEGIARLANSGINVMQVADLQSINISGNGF

B1: GST-TReP-132: in-frame fusion of the TReP-132 coding region downstream of GST in pGEX-2TK (protein)
chain: MGDQQLYKTNHVAHGSENLFYQQPPLGVHSGLNHNYGNAVTGGGMDAPQASPISPHFPQDTRDGLGLPVGSKNLGQMDTSRQGGWGSHAGPGNHVQLRGNLANSNMMWGAPAQAEPTDGYQYTYSQASEIRTQKLTSGVLHKLDSFTQVFANQNLRIQVNNMAQVLHTQSAVMDGAPDSALRQLLSQKPMEPPAPAIPSRYQQVPQQPHPGFTGGLSKPALQVGQHPTQGHLYYDYQQPLAQVPVQGGQPLQAPQMLSQHMQQMQQHQYYPPQQQQQAGQQRISMQEIQTQPQQIRPSQPQPPPQQQQPQQLQLQQRQGSMQIPQYYQPQPMMQHLQEQQQQQMHLQPPSYHRDPHQYTPEQAHTVQLIPLGSMSQYYYQEPQQPYSHPLYQQSHLSQHQQREDSQLKTYSSDRQAQAMLSSHGDLGPPDTGMGDPASSDLTRVSSTLPHRPLLSPSGIHLNNMGPQHQQLSPSAMWPQMHLPDGRAQPGSPESSGQPKGAFGEQFDAKNKLTCSICLKEFKNLPALNGHMRSHGGMRASPNLKQEEGEKVLPPQPQPPLPPPPPPPPPPQLPPEAESLTPMVMPVSVPVKLLPPKPSSQGFTNSTVAAPSARDKPASSMSDDEMPVLEIPRKHQPSVPKAEEPLKTVQEKKKFRHRPEPLFIPPPPSYNPNPAASYSGATLYQSQLRSPRVLGDHLLLDPTHELPPYTPPPMLSPVRQGSGLFSNVLISGHGPGAHPQLPLTPLTPTPRVLLCRSNSIDGSNVTVTPGPGEQTVDVEPRINIGLRFQAEIPELQDISALAQDTHKATLVWKPWPELENHDLQQRVENLLNLCCSSALPGGGTNSEFALHSLFEAKGDVMVALEMLLLRKPVRLKCHPLANYHYAGSDKWTSLERKLFNKALATYSKDFIFVQKMVKSKTVAQCVEYYYTWKKIMRLGRKHRTRLAEIIDDCVTSEEEEELEEEEEEDPEEDRKSTKEEESEVPKSPEPPPVPVLAPTEGPPLQALGQPSGSFICEMPNCGAVFSSRQALNGHARIHGGTNQVTKARGAIPSGKQKPGGTQSGYCSVKSSPSHSTTSGETDPTTIFPCKECGKVFFKIKSRNAHMKTHRQQEEQQRQKAQKAAFAAEMAATIERTTGPVGAPGLLPLDQLSLIKPIKDVDILDDDVVQQLGGVMEEAEVVDTDLLLDDQDSVLLQGDAEL
modifications: left off: a dimerising Fc or GST; large carriers; small tags and cut ends
notes: in-frame fusion of the TReP-132 coding region downstream of GST in pGEX-2TK
In the case of B1, the “interaction with Sp1” value is given as “protein/protein itneraction was observed”.

These data come from US20080044436A1, “Method for Screening and Compositions for Treating Cancers” (priority 2004, published 2008).
